The values below come from PMC8260353 (Nature, 2021).

The target of experiment [1] is T1, human immunodeficiency virus-1 (HIV-1) envelope trimer (BG505 DS-SOSIP) (HIV-1 group M subtype A, isolate BG505, UniProt Q2N0S6, stabilised).
Experiment [2] has as its target T1, human immunodeficiency virus-1 (HIV-1) …. The experiment can be described thus: BLI; BG505 DS-SOSIP binding to immobilized VHH9 nanobody; kinetic fit. As to conditions: both partners purified. In general terms: BLI is a label-free optical method that tracks binding on a fibre tip over time.
Experiment [3] concerns the target T2, Nb12 trimer (three Nb12 units with GGGGS(x3) linkers, fused to human IgG1 Fc) (nanomouse (mouse with camelid VHH genes)).
T2 construct: also called trivalent Nb12
The experiment can be described thus: BLI. The following applies: both partners purified.

Experiment [4] concerns the target T3, bivalent Nb30 (Nb30 fused to human IgG1 Fc) (nanomouse (mouse with camelid VHH genes)).
T3 construct: also called Nb30 (bivalent)
Briefly: BLI. As to conditions: both partners purified.

Positions count from the first letter of the chain named. Where two headings read alike, the source gives them in different places.

T3 sequence (heavy, as listed by the source): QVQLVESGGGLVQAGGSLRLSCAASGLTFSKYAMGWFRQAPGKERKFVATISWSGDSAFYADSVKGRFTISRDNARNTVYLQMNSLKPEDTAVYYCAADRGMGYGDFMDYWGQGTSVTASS

B1: VHH9-2 (VHH)
VHH: QVKLEESGGGSVQAGGSLRLSCTAPGFTSNSCGMAWYRQAPGKEREFVSSISTDGTTSYADSVKGRFTISKDKAKDTVYLQMNSLKPEDTAMYSCKTYGPYCYFDVWGAGTTVTVSS
Consider B1, for which, in experiment [1], the binding result is recorded as “binds”.

B2: VHH9-3 (VHH)
VHH: B1 VHH with S117A
As for B2, the binding result in experiment [1] is reported as “binds”.

B3: VHH9-1 (nanobody from nanomouse immunized with BG505 DS-SOSIP) (VHH)
VHH: B1 VHH with Q1E, K3H, E5V, A24T, V113L
B3: in experiment [2], the binding result was “binds”.

B4: SARS-CoV RBD fused to the Fc region of human IgG1 (Fc fusion)
chain: not shown
On to B4, for which the binding result in experiment [3] and in experiment [4] was “binds” each time.
